Data taken from publication PMC2721907 (Nature structural & molecular biology, 2009).
Square brackets hold non-standard residues; d marks the D form. Ends that are not written are not given here. F2Pmab = 2-amino-4,4-difluoro-3-methyl-4-phosphobutanoic acid (p-Thr mimetic); pT = C[C@@H](OP(=O)(O)O)[C@H](N)C(=O)O

target: Plk1 PBD (purified recombinant) (human); assay: ITC

How did the dH turn out when “LHSpTA, N-terminally acetylated (peptide)” was run?
Its dH is -9.9 kcal/mol.

How did the dH turn out when “MQSpTPL, N-terminally acetylated (peptide)” was run?
Its dH is -10 kcal/mol.

With Ac-PLHSpT (peptide) as the molecule, how does the Kd read?
The Kd was 445 nM.

For Ac-PLHS[pT]A [PLHSpTA, N-terminally acetylated], which Kd is on record?
Its Kd is 262 nM.

And the dH?
The dH was -11.6 kcal/mol.

Ac-HS[pT]A [HSpTA, N-terminally acetylated] was tested. Which Kd did it give?
The Kd was 19500 nM.

And the dH?
Its dH is -3.82 kcal/mol.

With Ac-LHS[pT]AI [LHSpTAI, N-terminally acetylated] as the molecule, how does the Kd read?
Its Kd is 247 nM.

What about the dH of the same molecule?
Its dH is -11.3 kcal/mol.

With Ac-LHS[pT] [LHSpT, N-terminally acetylated] as the molecule, how does the Kd read?
Its Kd is 22100 nM.

What about the dH of the same molecule?
Its dH is -6.29 kcal/mol.

target: Plk2 PBD (purified recombinant); assay: ITC
Sequence (Q9NYY3 whole entry): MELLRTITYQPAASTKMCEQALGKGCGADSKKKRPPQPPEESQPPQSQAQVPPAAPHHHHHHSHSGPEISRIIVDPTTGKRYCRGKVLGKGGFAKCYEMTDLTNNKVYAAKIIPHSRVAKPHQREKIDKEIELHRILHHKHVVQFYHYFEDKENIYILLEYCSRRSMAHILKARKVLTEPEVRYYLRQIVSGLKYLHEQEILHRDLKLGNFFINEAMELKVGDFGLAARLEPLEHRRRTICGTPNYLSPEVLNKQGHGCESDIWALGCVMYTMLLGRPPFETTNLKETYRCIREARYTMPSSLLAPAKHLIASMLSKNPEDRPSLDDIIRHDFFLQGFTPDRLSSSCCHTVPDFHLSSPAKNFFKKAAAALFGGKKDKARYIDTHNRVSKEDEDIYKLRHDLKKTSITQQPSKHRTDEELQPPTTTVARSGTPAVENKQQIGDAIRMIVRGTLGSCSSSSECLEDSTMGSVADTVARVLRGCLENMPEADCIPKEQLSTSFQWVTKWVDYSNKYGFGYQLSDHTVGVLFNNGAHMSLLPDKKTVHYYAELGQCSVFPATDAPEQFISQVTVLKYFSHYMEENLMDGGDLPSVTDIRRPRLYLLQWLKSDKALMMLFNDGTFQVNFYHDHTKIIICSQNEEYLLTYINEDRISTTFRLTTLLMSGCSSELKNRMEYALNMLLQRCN

With “PLQSpT, N-terminally acetylated (peptide)” as the molecule, how does the calorimetric initial heat of interaction read?
The calorimetric initial heat of interaction was -1.1 kcal/mol.

With “MQSpTPL, N-terminally acetylated (peptide)” as the molecule, how does the calorimetric initial heat of interaction read?
The calorimetric initial heat of interaction was -1.68 kcal/mol.

target: Plk1 (Homo sapiens, UniProt P53350); assay: Peptide pull-down of Plk1 from HeLa lysates with bead-immobilized peptides
Sequence (P53350 367-603 limits assumed): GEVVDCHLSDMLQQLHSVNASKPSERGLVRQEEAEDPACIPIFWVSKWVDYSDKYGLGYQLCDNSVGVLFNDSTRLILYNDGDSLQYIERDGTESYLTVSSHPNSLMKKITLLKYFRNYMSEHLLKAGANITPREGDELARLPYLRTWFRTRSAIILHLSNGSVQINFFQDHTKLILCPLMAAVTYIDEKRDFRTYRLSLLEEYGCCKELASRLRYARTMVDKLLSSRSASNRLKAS

PLHA-Pmab (PLHAT) was tested. Which “Plk1 binding in peptide pull-down (in words)” value did it give?
Its value is “abolished the Plk1 binding”.

With “PLHS-F2Pmab-A: 6-mer p-T78 mimetic peptide containing 2-amino-4,4-difluoro-3-methyl-4-phosphobutanoic acid (F2Pmab) (PLHS[F2Pmab]A-NH2)” as the molecule, how does the “Plk1 binding in peptide pull-down (in words)” value read?
Its value is “precipitated Plk1”.
